Measured values taken from US20130079278A1 (Novo Nordisk, published 2013).
*1 amine or outer side, *2 acyl side, *3 side chain or, on linkers, in order; H or OH if unused. Where no end group is shown, it is not given here. Side-chain parts run from the residue outwards. The star is where a group is joined. X1 = 4‑(16-(1H-tetrazol-5-yl)hexadecanoylsulfamoyl)butanoyl, O=C(CCCCCCCCCCCCCCCc1nnn[nH]1)NS(=O)(=O)CCCC(=O)*; X2 = 4‑(16-(1H-tetrazol-5-yl)hexadecanoylsulfamoyl)butanoyl, O=C(CCCCCCCCCCCCCCCc1nn[nH]n1)NS(=O)(=O)CCCC(=O)*; C18 diacid = O=C(O)CCCCCCCCCCCCCCCCC(=O)*; C16 diacid = O=C(O)CCCCCCCCCCCCCCC(=O)*; γGlu = O=C(O)[C@H](CCC(=O)[*:2])N[*:1]; AEEA = NCCOCCOCC(=O)O

B1: N^ε24-[(4S)-4-carboxy-4-[[(4S)-4-carboxy-4-[[2-[2-[2-[[2-[2-[2-[[(4S)-4-carboxy-4-(17-carboxyheptadecanoylamino)butanoyl]amino]ethoxy]ethoxy]acetyl]amino]ethoxy … (peptide)
peptide: HSQGTFTSDYSKYLESRRAQDFVK([γGlu-γGlu-AEEA-AEEA-γGlu-C18 diacid])WLLST-NH2
modifications: N-terminus assumed
SMILES: CC(C)C[C@H](NC(=O)[C@H](Cc1ccc(O)cc1)NC(=O)[C@H](CCCCN)NC(=O)[C@H](CO)NC(=O)[C@H](Cc1ccc(O)cc1)NC(=O)[C@H](CC(=O)O)NC(=O)[C@H](CO)NC(=O)[C@@H](NC(=O)[C@H](Cc1ccccc1)NC(=O)[C@@H](NC(=O)CNC(=O)[C@H](CCC(N)=O)NC(=O)[C@H](CO)NC(=O)[C@@H](N)Cc1c[nH]cn1)[C@@H](C)O)[C@@H](C)O)C(=O)N[C@@H](CCC(=O)O)C(=O)N[C@@H](CO)C(=O)N[C@@H](CCCNC(=N)N)C(=O)N[C@@H](CCCNC(=N)N)C(=O)N[C@@H](C)C(=O)N[C@@H](CCC(N)=O)C(=O)N[C@@H](CC(=O)O)C(=O)N[C@@H](Cc1ccccc1)C(=O)N[C@H](C(=O)N[C@@H](CCCCNC(=O)CC[C@H](NC(=O)CC[C@H](NC(=O)COCCOCCNC(=O)COCCOCCNC(=O)CC[C@H](NC(=O)CCCCCCCCCCCCCCCCC(=O)O)C(=O)O)C(=O)O)C(=O)O)C(=O)N[C@@H](Cc1c[nH]c2ccccc12)C(=O)N[C@@H](CC(C)C)C(=O)N[C@@H](CC(C)C)C(=O)N[C@@H](CO)C(=O)N[C@H](C(N)=O)[C@@H](C)O)C(C)C
B2: N^ε24-[(4S)-4-carboxy-4-[[2-[2-[2-[[2-[2-[2-[[(4S)-4-carboxy-4-[[(4S)-4-carboxy-4-(17-carboxyheptadecanoylamino)butanoyl]amino]butanoyl]amino]ethoxy]ethoxy]acet … (peptide)
peptide: HSQGTFTSDVSKYLDTRRAQEFVK([γGlu-AEEA-AEEA-γGlu-γGlu-C18 diacid])WLLST-NH2
modifications: N-terminus assumed
SMILES: CC(C)C[C@H](NC(=O)[C@H](Cc1c[nH]c2ccccc12)NC(=O)[C@H](CCCCNC(=O)CC[C@H](NC(=O)COCCOCCNC(=O)COCCOCCNC(=O)CC[C@H](NC(=O)CC[C@H](NC(=O)CCCCCCCCCCCCCCCCC(=O)O)C(=O)O)C(=O)O)C(=O)O)NC(=O)[C@@H](NC(=O)[C@H](Cc1ccccc1)NC(=O)[C@H](CCC(=O)O)NC(=O)[C@H](CCC(N)=O)NC(=O)[C@H](C)NC(=O)[C@H](CCCNC(=N)N)NC(=O)[C@H](CCCNC(=N)N)NC(=O)[C@@H](NC(=O)[C@H](CC(=O)O)NC(=O)[C@H](CC(C)C)NC(=O)[C@H](Cc1ccc(O)cc1)NC(=O)[C@H](CCCCN)NC(=O)[C@H](CO)NC(=O)[C@@H](NC(=O)[C@H](CC(=O)O)NC(=O)[C@H](CO)NC(=O)[C@@H](NC(=O)[C@H](Cc1ccccc1)NC(=O)[C@@H](NC(=O)CNC(=O)[C@H](CCC(N)=O)NC(=O)[C@H](CO)NC(=O)[C@@H](N)Cc1c[nH]cn1)[C@@H](C)O)[C@@H](C)O)C(C)C)[C@@H](C)O)C(C)C)C(=O)N[C@@H](CC(C)C)C(=O)N[C@@H](CO)C(=O)N[C@H](C(N)=O)[C@@H](C)O

The binders below were run against glucagon receptor (human, UniProt P47871 26-477) (assay: cell-based or functional assay).
glucagon receptor, sequence (P47871 26-477): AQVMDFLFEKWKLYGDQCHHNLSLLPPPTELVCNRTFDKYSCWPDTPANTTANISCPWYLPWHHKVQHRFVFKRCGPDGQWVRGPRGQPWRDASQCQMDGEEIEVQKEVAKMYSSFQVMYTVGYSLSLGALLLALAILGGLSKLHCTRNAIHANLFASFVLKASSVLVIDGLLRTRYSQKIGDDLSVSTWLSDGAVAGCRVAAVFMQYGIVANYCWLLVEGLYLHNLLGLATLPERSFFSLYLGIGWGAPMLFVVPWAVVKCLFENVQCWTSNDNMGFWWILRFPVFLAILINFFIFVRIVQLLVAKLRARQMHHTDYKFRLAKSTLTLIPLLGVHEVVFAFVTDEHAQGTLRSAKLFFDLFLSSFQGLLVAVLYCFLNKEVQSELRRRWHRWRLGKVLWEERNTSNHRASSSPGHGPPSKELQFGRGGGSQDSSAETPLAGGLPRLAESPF

Row | Assay (I) Glucagon [EC50] | Binder
1 | 0.07 nM | HSQGTFTSDYSKYLDARRAQDFVK([γGlu-γGlu-AEEA-AEEA-γGlu-C18 diacid])WLEST
2 | 0.077 nM | HSHGTFTSDYSKYLDSKRAQEFVK([γGlu-γGlu-AEEA-γGlu-C18 diacid])WLLST
3 | 0.109 nM | HSQGTFTSDYSRYLDLRRAQDFVK([γGlu-γGlu-γGlu-γGlu-C16 diacid])WLLST
4 | 0.517 nM | HSQGTFTSDYSKYLESRRAQDFVK([γGlu-γGlu-AEEA-AEEA-γGlu-C18 diacid])WLLQT
5 | 0.14 nM | HSQGTFTSDYSRYLESRRAQDFVK([γGlu-γGlu-AEEA-AEEA-γGlu-C16 diacid])WLLST
6 | 0.289 nM | HSQGTFTSDYSRYLESRRAQEFVK([γGlu-γGlu-AEEA-AEEA-γGlu-C18 diacid])WLLST
7 | 0.243 nM | HSQGTFTSDYSRYLDLRRAQDFVK([γGlu-γGlu-γGlu-AEEA-AEEA-γGlu-C18 diacid])WLLST
8 | 0.362 nM | HSQGTFTSDYSKYLESRRAQDFVK([γGlu-γGlu-AEEA-γGlu-X1])WLLST
9 | 0.204 nM | HSQGTFTSDYSRYLDLRRAQDFVK([γGlu-γGlu-AEEA-AEEA-γGlu-C18 diacid])WLLQT
10 | 0.016 nM | HSQGTFTSDYSRYLDARRAQDFVK([γGlu-γGlu-γGlu-C16 diacid])WLLST
11 | 0.176 nM | HSQGTFTSDVSRYLDTRRAQEFVK([γGlu-AEEA-AEEA-γGlu-γGlu-C18 diacid])WLLST
12 | 0.081 nM | HSQGTFTSDYSKYLDVRRAQDFVK([γGlu-γGlu-AEEA-AEEA-γGlu-C18 diacid])WLLNT
13 | 0.134 nM | B1
14 | 0.08 nM | HSQGTFTSDVSKYLDTRRAQEFVK([AEEA-AEEA-γGlu-γGlu-γGlu-C18 diacid])WLLST
15 | 0.099 nM | HSQGTFTSDYSRYLDIRRAQEFVK([γGlu-γGlu-AEEA-AEEA-γGlu-C18 diacid])WLEST
16 | 1.09 nM | HSQGTFTSDYSRYLESRRAQEFVK([γGlu-γGlu-AEEA-AEEA-γGlu-C18 diacid])WLEST
17 | 0.105 nM | HSHGTFTSDYSKYLDSRRAQDFVK([γGlu-γGlu-AEEA-AEEA-γGlu-C18 diacid])WLLNT

Row | Assay (I) Glucagon [EC50] | Binder
18 | 0.169 nM | HSQGTFTSDYSKYLESRRAQEFVK([γGlu-γGlu-γGlu-γGlu-C18 diacid])WLLST
19 | 0.231 nM | HSQGTFTSDYSRYLDLRRAQDFVK([γGlu-γGlu-AEEA-AEEA-γGlu-X2])WLLST
20 | 0.072 nM | HSQGTFTSDYSRYLESRRAQEFVK([γGlu-γGlu-AEEA-AEEA-γGlu-C16 diacid])WLLST
21 | 0.395 nM | HSQGTFTSDYSKYLESRRAQDFVK([γGlu-γGlu-AEEA-X1])WLLST
22 | 0.682 nM | HSQGTFTSDYSKYLESRRAQDFVK([γGlu-γGlu-AEEA-AEEA-γGlu-C18 diacid])WLEST
23 | 0.357 nM | HSQGTFTSDYSRYLDLRRAQDFVK([γGlu-γGlu-AEEA-AEEA-X1])WLLST
24 | 0.148 nM | HSQGTFTSDYSRYLESRRAQEFVK([γGlu-γGlu-γGlu-γGlu-C18 diacid])WLLST
25 | 0.106 nM | HSQGTFTSDYSRYLDARRAQDFVK([γGlu-γGlu-γGlu-γGlu-C16 diacid])WLLST
26 | 0.136 nM | HSQGTFTSDYSRYLDLRRAQDFVK([γGlu-γGlu-AEEA-AEEA-γGlu-C18 diacid])WLEST
27 | 0.192 nM | HSQGTFTSDYSKYLDARRAQDFVK([γGlu-γGlu-AEEA-AEEA-γGlu-C18 diacid])WLLQT
28 | 0.118 nM | HSQGTFTSDVSKYLESRRAQEFVK([γGlu-γGlu-γGlu-γGlu-C18 diacid])WLLST
29 | 0.156 nM | B2
30 | 1.63 nM | HSQGTFTSDVSRYLESRRAQEFVK([γGlu-γGlu-AEEA-AEEA-γGlu-C18 diacid])WLEST
31 | 0.095 nM | HSQGTFTSDYSRYLDLRRAQEFVK([γGlu-γGlu-AEEA-AEEA-γGlu-C18 diacid])WLLST
32 | 0.088 nM | HSQGTFTSDVSKYLDLRRAQEFVK([γGlu-AEEA-AEEA-γGlu-γGlu-C18 diacid])WLLST
33 | 0.071 nM | HSQGTFTSDYSKYLESRRAQDFVK([γGlu-γGlu-AEEA-AEEA-γGlu-C16 diacid])WLLST
34 | 0.176 nM | HSQGTFTSDYSRYLDTRRAQDFVK([γGlu-γGlu-AEEA-AEEA-γGlu-C18 diacid])WLEST
